Experimental data from patent US20230348578A1 (BETH ISRAEL DEACONESS MEDICAL CENTER, published 2023).
Residue numbers refer to the chain shown, from its start.

B1: Cis-mAb HT18 (humanized) (antibody, V domains shown)
VH: QVQLVQSGAEVKKPGSSVKVSCKASGYTFTSYWIHWVRQAPGQGLEWMGVIDPSDSYTRYNQKFKGRVTITRDTSMSTAYTELSSLRSEDTAVYYCTTWEVDYWGQGTLVTVSS
VL: DIQMTQSPSTLSASVGDRVTITCRSSQSLVHSDGNTYLHWYQQKPGKAPKLLIYKVSNRFSGVPSRFSGSGSGTEFTLTISSLQPDDFATYYCSQSTHVPWTFGQGTKLEIK
B2: Cis-mAb HT13 (mouse-human chimera, control) (antibody, V domains shown)
VH: QVQLQQPGAELVKPGASVKMSCKASGYTFTSYWIHWVKQRPGQGLEWIGVIDPSDSYTRYNQKFKGKATLTVDTSSSTAYMQLSSLTSEDSAVYYCTTWEVDYWGQGTTLTVSS
VL: DVVMTQTPLSLPVSLGDQASISCRSSQSLVHSDGNTYLHWYLQKPGQSPKLLIYKVSNRFSGVPDRFSGSGSGTDFTLKISRLEAEDLGVYFCSQSTHVPWTFGGGTKLEIK
B3: Cis-mAb HT2 (humanized) (antibody, V domains shown)
VH: B1 VH with S16A, V20M, R38K, A40R, M48I, V68A, I70L, R72V, M76A, T81M
VL: B2 VL with T7S, S14T, D17Q, Q18P, K50Q, L83V, L88V, L109V
B4: Cis-mAb HT8 (humanized) (antibody, V domains shown)
VH: B1 VH with S16A, A40R, M48I, M76A, T81M
VL: B2 VL with T7S, S14T, D17Q, Q18P, K50Q, F60D, L83V, L88V, L109V
B5: Cis-mAb HT3 (humanized) (antibody, V domains shown)
VH: B1 VH with S16A, A40R, M48I, I70L, R72V, M76A, T81M
VL: B2 VL with T7S, S14T, D17Q, Q18P, K50Q, L83V, L88V, L109V
B6: Cis-mAb HT1 (humanized) (antibody, V domains shown)
VH: B2 VH with Q5V, P7S, V12K, K67R, S76A, L110V
VL: B2 VL with T7S, S14T, D17Q, Q18P, K50Q, L83V, L88V, L109V
B7: Cis-mAb HT10 (humanized) (antibody, V domains shown)
VH: B1 VH with S16A, V20M, R38K, A40R, M48I, V68A, I70L, R72V, M76A, T81M
VL: B2 VL with T7S, S14T, D17Q, Q18P, K50Q, L83V, L88V, F92Y, L109V

Target: cis P-tau in cultured neurons stressed by hypoxia
Experiment: cell-based or functional assay

| Binder | Cis P-tau elimination |
| --- | --- |
| B1 | 0.8 relative (HT13 = 1.0) |
| B2 | 1 relative (HT13 = 1.0) |
| B3 | 1.5 relative (HT13 = 1.0) |
| B4 | 0.9 relative (HT13 = 1.0) |
| B5 | 1.6 relative (HT13 = 1.0) |
| B6 | 1.7 relative (HT13 = 1.0) |
| B7 | 0.9 relative (HT13 = 1.0) |
